{"source": "paper PMC3646895", "about": "“The Carboxy-Terminal αN Helix of the Archaeal XerA Tyrosine Recombinase Is a Molecular Switch to Control Site-Specific Recombination” (PLoS ONE, 2013)", "key": {"[1]": {"molecular_target": "XerA recombinase from Pyrococcus abyssi, C-terminal His-tagged (Pyrococcus abyssi) (UniProt Q9V1P5)", "assay": "AUC; sedimentation velocity, 25°C, 0.3 mM (11.8 mg.ml^-1) XerA in 20 mM Tris-HCl pH 7.5, 1 M NaCl, 42,000 rpm; c(s) distribution and self-association model with fitted non-ideality; dimer to monomers"}, "[2]": {"molecular_target": "the molecule itself", "assay": "SDS-PAGE of covalent protein-DNA complexes (assemblies resistant to thermal denaturation); 40 pmol XerA protein with 25 nM 5' end-labeled left half recombination site, 30 mM Tris pH 7.5, 50 mM NaCl, 2 h at 65°C, quenched in Laemmli buffer, 10 min at 100°C, 12% SDS-PAGE, phosphorimaging"}}, "note": "Values joined by “and” are separate entries in the source; they are usually repeats but may differ in a detail not shown here. Equal values may be shown once.", "data": [{"molecule": "XerA recombinase from Pyrococcus abyssi, C-terminal His-tagged (from UniProt Q9V1P5 1-286) (enzyme)", "values": [{"measurement": "Kd", "setting": "[1]", "value": "> 100", "unit": "µM"}, {"measurement": "stoichiometry N", "setting": "[1]", "value": "2 and 4"}]}, {"molecule": "XerA-ΔC, XerA deleted for the last 13 amino-acids (αN helix), N-terminal His-tagged (domain or fragment, Pyrococcus abyssi, UniProt Q9V1P5 1-273, looked up, XerA tyrosine recombinase, Pyrococcus abyssi, deleted for the last 13 amino-acids corresponding to the αN helix alone; In the assay it is covalently linked to the cleaved DNA half site; also called ΔαN helix mutant; source: recombinant, obtained by PCR, expressed and purified following the procedure described for the wild-type enzyme) MEEREERVRDDTIEEFATYLELEGKSRNTVRMYTYYISKFFEEGHSPTARDALRFLAKLKRKGYSTRSLNLVIQALKAYFKFEGLDSEAEKLKTPKMPKTLPKSLTEEEVRRIINAAETLRDRLILLLLYGAGLRVSELCNLRVEDVNFEYGVIVVRGGKGGKDRVVPISESLLSEIKRYLESRNDDSPYLFVEMKRKRKDKLSPKTVWRLVKKYGRKAGVELTPHQLRHSFATHMLERGIDIRIIQELLGHSNLSTTQIYTKVSTKHLKEAV", "values": [{"measurement": "fold reduction of the high molecular weight complexes against XerA", "setting": "[2]", "value": 4, "unit": "fold"}]}]}
